Reference: IntAct's records for PubMed 22796944

How the values were obtained:
cdc73_yeast CDC73 = cdc73_yeast CDC73 (UniProt Q06697)
rtf1_yeast RTF1 = rtf1_yeast RTF1 (UniProt P53064)
Sequence of rtf1_yeast RTF1 (P53064 whole entry): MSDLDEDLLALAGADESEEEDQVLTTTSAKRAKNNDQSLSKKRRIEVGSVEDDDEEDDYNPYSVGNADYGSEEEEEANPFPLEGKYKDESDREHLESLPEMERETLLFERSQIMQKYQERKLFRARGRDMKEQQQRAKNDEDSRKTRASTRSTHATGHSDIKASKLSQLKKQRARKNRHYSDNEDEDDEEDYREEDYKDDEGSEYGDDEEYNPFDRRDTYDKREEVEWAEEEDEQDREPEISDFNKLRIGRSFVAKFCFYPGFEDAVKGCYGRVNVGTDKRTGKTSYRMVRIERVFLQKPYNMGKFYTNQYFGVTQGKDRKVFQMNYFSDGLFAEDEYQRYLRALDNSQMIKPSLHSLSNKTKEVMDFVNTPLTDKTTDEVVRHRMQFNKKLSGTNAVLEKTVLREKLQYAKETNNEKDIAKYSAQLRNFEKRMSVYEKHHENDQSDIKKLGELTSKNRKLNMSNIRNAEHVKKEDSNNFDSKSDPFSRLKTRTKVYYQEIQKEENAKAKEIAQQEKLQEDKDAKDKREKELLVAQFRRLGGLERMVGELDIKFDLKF

Sequence of cdc73_yeast CDC73 (Q06697 whole entry): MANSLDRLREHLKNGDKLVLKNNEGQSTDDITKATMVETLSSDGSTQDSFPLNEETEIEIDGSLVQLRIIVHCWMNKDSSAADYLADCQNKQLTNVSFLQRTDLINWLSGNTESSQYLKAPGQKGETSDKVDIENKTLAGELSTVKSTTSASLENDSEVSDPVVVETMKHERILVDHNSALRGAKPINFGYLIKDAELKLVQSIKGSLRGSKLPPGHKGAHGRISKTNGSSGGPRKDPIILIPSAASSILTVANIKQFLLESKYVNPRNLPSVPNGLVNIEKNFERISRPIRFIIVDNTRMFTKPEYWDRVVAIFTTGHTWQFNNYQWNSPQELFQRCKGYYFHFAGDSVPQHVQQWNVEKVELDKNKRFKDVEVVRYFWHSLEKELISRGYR

| Substance | effect of a mutation on the interaction (cdc73_yeast CDC73) | effect of a mutation on the interaction (rtf1_yeast RTF1) |
| --- | --- | --- |
| DNA-directed RNA polymerase II subunit RPB1 (Saccharomyces cerevisiae), P04050 S1557D | decreasing interaction | disrupting interaction |
| DNA-directed RNA polymerase II subunit RPB1 (Saccharomyces cerevisiae), P04050 S1560D | decreasing interaction | disrupting interaction |
